Columns and labels:
[1] = biological target: the molecule itself; assay: dynamic light scattering; MjTX-I 1.5 mg/ml, 18 °C, 20 mM Tris-HCl pH 8.0
[2] = biological target: the molecule itself; assay: dynamic light scattering; MjTX-I 1.5 mg/ml, 18 °C, 0.5, 2.0 and 10.0 mM Tris-HCl pH 8.0, two hours after addition of the buffer

B1: MjTX-I (myotoxin-I) from Bothrops moojeni venom (natural protein)
chain: SLVELGKMILQETGKNPVTSYGAYGCNCGVLGRGKPKDATDRCCYVHKCCYKKLTDCNPKKDRYSYSWKDKTIVCGENNSCLKELCECDKAVAICLRENLDTYNKKYKNNYLKPFCKKADPC
notes: Myotoxin-I (MjTX-I), Lys49-phospholipase A2 homologue from Bothrops moojeni venom, NCBI GI 17368325; about 14 kDa per monomer; also called Lys49-PLA2
Which results are given for B1?
stoichiometry N [1]: 4; stoichiometry N [2]: 2

Source: publication PMC3616104, “Structural and Phylogenetic Studies with MjTX-I Reveal a Multi-Oligomeric Toxin – a Novel Feature in Lys49-PLA2s Protein Class” (PLoS ONE, 2013)
